For assay [1], the system named is S. aureus. The experiment in a line: In vitro microplate biofilm formation assay (crystal violet). The assay is classed as cell-based, Staphylococcus aureus. The settings on record: DispersinB at different concentrations, TSB, 37° C., 24 hours.
Description: (§5) An in vitro microplate assay was performed to determine the effect of DispersinB™ on the growth and biofilm formation of E. coli, S. epidermidis, and S. aureus. E. coli biofilm was grown in colony forming antigen (CFA) medium. […] S. epidermidis and S. aureus biofilm was grown in tryptic soy broth (TSB). Bacteria were separately grown in 96-well microtiterplate in the absence and presence of DispersinB™ at different concentrations. The E. coli plate was incubated at 26° C. for 24 hours. The S. epidermidis and S. aureus biofilm plates were incubated at 37° C. for 24 hours. Growth of planktonic cells based on the absorbance at 600 nm was determined using Labsystems Multiskan Ascent microplate reader. Biofilm was measured by discarding the medium; rinsing the wells with water (three times), and staining bound cells with crystal violet. The dye was solubilized with 33% acetic acid, and absorbance at 630 nm was determined using a microtiter plate reader.
Assay [2] has as its system A. actinomycetemcomitans CU1000 biofilms. Briefly: Biofilm killing assay. The assay is classed as cell-based. The settings on record: DispersinB alone, 20 μg/mL. On the procedure:
Biofilm Killing Assay. […] Tubes were vortexed for 10 s, and 20 μL aliquots of the detached biofilms were transferred to the wells of a flat-bottomed 96-well microtiter plate containing 180 μL of fresh broth. Five serial dilutions (20 μL into 180 μL) were performed directly into adjacent wells. Plates were incubated for 48 h and then rinsed and stained with crystal violet as described above. Wells containing 30-300 biofilm colonies were photographed under a dissecting microscope and counted. In some assays, biofilms were pre-treated with 1 mL of DispersinB™ (20 μg/mL in PBS) for 5 min prior to the SDS treatment. In these assays, a 100 μL quantity of SDS in PBS (at 10 times the test concentration) was added directly to the DispersinB™-treated cell suspension and mixed. After 5 min, tubes were vortexed briefly, and 20-μL aliquots of culture were enumerated as described above. Killing assays were performed in duplicate tubes on at least 5 separate occasions, with similar results.

Assay [3] deals with E. coli csrA luxCDABE kan^r biofilm. The experiment in a line: Bioluminescent E. coli biofilm on filter disc, luminescence. The assay is classed as cell-based. The settings on record: for luminescence, Day 1 / luminescence, Day 2 / luminescence, Day 3 / luminescence, Day 4: DispersinB 50 μg/ml. From the text: E. coli TRMG1655 [csrA::kan^r] strain was transformed with transposon, mini-TN5 luxCDABE::kan^r for luciferase expression (Kadurugamuwa et al., 2005, Infect. Immun. 73: 3878-3887), and the operon integrated into the chromosome. Integration was confirmed by amplification of the genomic DNA upstream of the transposon by inverse PCR using Ssp1-digested genomic DNA. Primers UTCF1 (5′-[…]-3′; SEQ ID NO:13) and UTCR (5′-[…]-3′; SEQ ID NO:14) were used to amplify the upstream region using Pfu DNA polymerase (Sigma-Oligosynthesis, St. Louis, Mo.). The lux operon is derived from Photorhabdus luminescence and was obtained from Xenogen Inc. (Alameda, Calif.). These bioluminescent bacteria allow real-time monitoring by noninvasive imaging of biofilms, either in vitro or in vivo.
A cell suspension of 10^6 E. coli csrA luxCDABE kan^r was used to inoculate a filter disc (Millipore Corporation, Billerica, Mass.). The E. coli biofilm was maintained in minimal media (M9) supplemented with 50 μg/ml kanamycin and 100 μg/ml ampicillin. The media were changed every day by transferring the disc to new plate. After 3 days, chemoluminescence activity of the established biofilm was measured using a Typhoon™ imaging scanner (General Electric Healthcare Life Sciences) and ImageQuant TL software (Amersham Biosciences, Sunnyvale, Calif.). The measure luminescence directly correlates with the metabolic activity of the biofilm.
Luminescence was measured at day 0 and was used as the control. Following the measurement of luminescence at day 0, each disc was treated with one of the following—media alone (control) and media containing:
Luminescence was measured every 24 hours followed by replacing the media. Thus, every 24 h following the measurement of the luminescence, 10 μl each of the different solutions was applied to the plate and the biofilm disc was placed on top of the drop everyday. The quantitative analysis of the biofilm luminescence from each day was used to compare the biofilm activity after treatment with the different treatments.
The experiments were repeated using the same E. coli strain csrA luxCDABE kan^r and protocols. Biofilm discs were pulsed with media alone (control) and media containing: […]

The test system of assay [4] is A. actinomycetemcomitans strain HW1018 (PGA mutant) biofilms. Briefly: Biofilm detachment assay (crystal violet). The assay is classed as cell-based. The settings on record: DispersinB 20 μg/mL; either culture vessel. An excerpt: (§1) Bacterial strains, media, and growth conditions. A. actinomycetemcomitans strain CU1000 (serotype f) was isolated from a person with localized aggressive periodontitis (Fine et al., Microbiol. 1999, 145: 1335-1347). […] An isogenic PGA mutant strain HW1018 (CU1000 pgaC::IS903φKan) was isolated by randomly mutagenizing CU1000 with transposon IS903φKan and selecting mutants that produced white colonies on Congo red agar, as previously described (Kaplan et al., 2003; Kaplan et al., J. Bacteriol. 2004, 186: 8213-8220). Like other pgaC mutant strains, HW1018 was completely deficient in PGA production, but still formed tenacious biofilms on plastic surfaces (Kaplan et al., 2004). Bacteria were grown in trypticase soy broth supplemented with […] and 8 g/L glucose. Solid medium was supplemented with 15 g/L agar. All cultures were incubated statically at 37° C. in 10% CO2.
(§2) Biofilm Cultures. Biofilms were grown in 17 mm×100 mm culture tubes (untreated polystyrene; Falcon #352051) or 96-well microtiter plates (tissueculture-treated polystyrene, flat bottoms; Falcon #353072). Culture vessels were inoculated with a 1:10 dilution of inoculum in fresh broth (1 mL for tubes or 200 μL for microplates) and incubated for 24 h.
(§3) Crystal Violet Assay. Biofilm biomass was visualized and quantitated by means of a crystal violet binding assay as previously described (Kaplan et al., Antimicrob. Agents Chemother. 2004, 48: 2633-2636). Briefly, biofilms were rinsed with water to remove loosely attached cells, stained for 1 min with Gram's crystal violet (200 μL for microplates and 1 mL for tubes), rinsed, dried, and photographed. For quantitation of biofilms grown in microplates, biofilms were de-stained with 200 μL of 33% acetic acid for 5 min, and the absorbance of the crystal violet solution was measured directly in the plate by means of a BioRad Benchmark microtiter plate-reader set at 590 nm. Crystal violet binds to bacterial biofilms, but not to polystyrene (O'Toole & Kolter, Mol. Microbiol. 1998, 28: 449-461).
(§4) Biofilm Detachment Assay. Biofilms were rinsed with water and treated with 200 μL (for microplates) or 1 mL (for tubes) of DispersinB™ (20 μg/mL in PBS) or SDS (0.001-1% in PBS). After a five- or 30-minute incubation at 37° C., biofilms were rinsed with water and stained with crystal violet as described above. In some assays, biofilms were first treated with DispersinB™ for 5 or 30 min, rinsed, and then treated with SDS. All detachment assays were performed in duplicate wells or tubes. All assays were performed on at least 3 separate occasions, with similar results.

Assay [5] deals with A. actinomycetemcomitans strain CU1000 (wild-type) biofilms. The experiment in a line: Biofilm detachment assay (crystal violet). The assay is classed as cell-based.
Source text: as §1, §2, §3, §4

Assay [6] concerns E. coli. The experiment in a line: In vitro microplate biofilm formation assay (crystal violet). The assay is classed as cell-based, Escherichia coli. The settings on record: DispersinB at different concentrations, CFA medium, 26° C., 24 hours.
Description: as §5
[7] abbreviates: Table 3, phage 10^8, treatment renewed every 24 h.
The mark [8] stands for this setting: Table 4, repeated experiment, BisEDT 50 μg/ml, phage cocktail 10^8.

B1: DispersinB™: 381 amino acid soluble β-N-acetylglucosaminidase encoded by dspB of A. actinomycetemcomitans; mature polypeptide SEQ ID NO:11 (protein)
chain: NCCVKGNSIYPQKTSTKQTGLMLDIARHFYSPEVIKSFIDTISLSGGNFLHLHFSDHENYAIESHLLNQRAENAVQGKDGIYINPYTGKPFLSYRQLDDIKAYAKAKGIELIPELDSPNHMTAIFKLVQKDRGVKYLQGLKSRQVDDEIDITNADSITFMQSLMSEVIDIFGDTSQHFHIGGDEFGYSVESNHEFITYANKLSYFLEKKGLKTRMWNDGLIKNTFEQINPNIEITYWSYDGDTQDKNEAAERRDMRVSLPELLAKGFTVLNYNSYYLYIVPKASPTFSQDAAFAAKDVIKNWDLGVWDGRNTKNRVQNTHEIAGAALSIWGEDAKALKDETIQKNTKSLLEAVIHKTNGDE
modifications: Actinobacillus actinomycetemcomitans
B1: the biofilm formation result in assay [1] and in assay [6] was “appreciable effect” throughout. Moreover, the “killing of A. actinomycetemcomitans biofilms” value in assay [2] (5 min or 30 min) is “did not significantly kill”. Further, the “reduction in the number of CFU/tube” value in assay [2] (30 min, versus mock-treated controls) was “little or no reduction”. Also, the “luminescence, Day 0” value in assay [3] (Table 3, Day 0, measured before treatment (baseline)) was 948.72 RLU; in assay [3] (Table 4, repeated experiment, Day 0, before treatment (baseline)) it was 1815.26 RLU. Also, the entries for the “luminescence, Day 1” value in assay [3] (setting [7]) and in assay [3] (setting [8]) were 1167.19 RLU and 2137.73 RLU, respectively. Besides, the “luminescence, Day 2” value is recorded as 1297.42 RLU in assay [3] (setting [7]) and 1911.9 RLU in assay [3] (setting [8]). The “luminescence, Day 3” value in assay [3] (setting [7]) came to 1487.76 RLU; in assay [3] (setting [8]), 2982.02 RLU. For the same molecule, the “luminescence, Day 4” value in assay [3] (setting [7]) was determined as 1550.01 RLU; in assay [3] (setting [8]), 2032.06 RLU. Also, the “course of biofilm luminescence (RLU) / metabolic activity over time” value in assay [3] (over 4 days, result in words) is recorded as “growth similar to the control”. Further, in assay [4], the “attachment of PGA mutant biofilms” value was “no effect”. The “detachment of wild-type biofilms from microplate wells” value in assay [5] (DispersinB 20 μg/mL in PBS, 5 min, 96-well microplate wells) is “not from microplate wells”. In assay [5] (DispersinB 20 μg/mL in PBS, 5 min, polystyrene tubes), the “detachment of wild-type biofilms from tubes” value is “rapid detachment”. Besides, the “single cells in suspension after disaggregation of biofilms” value in assay [5] (biofilms grown in tubes, DispersinB, microscopic analyses (data not shown)) is given as greater than 99%.

Values taken from patent publication US8821862B2, “Soluble β-N-acetylglucosaminidase based antibiofilm compositions and uses thereof” (Kane Biotech Inc., priority 2002, dated 2014).
